Measured values as given in paper PMC6629437 (Cell, 2019).

Key:
[1] = target: monomeric HA head domain of H5 A/Vietnam/1203/2004 (Influenza A virus A/Vietnam/1203/2004 …, UniProt Q5EP31, strain); assay: HDX-MS
[2] = target: H1 HA of A/California/04/2009, His-tagged soluble HA (competition assay) (Influenza A virus A/California/04/2009 …, UniProt C3W5S1, strain); assay: BLI
[3] = target: HA head domain of H7 A/Shanghai/02/2013 (Influenza A virus A/Shanghai/02/2013 …, UniProt R4NN21, strain); assay: BLI
[4] = target: HA head domain of H3 A/Victoria/361/2011 (Influenza A virus A/Victoria/361/2011 …, UniProt A0A097PF39, strain); assay: BLI
[5] = target: T1, HA head domain of H1 A/Solomon Islands/3/2006 (Influenza A virus A/Solomon …, strain); assay: BLI
T1 chain: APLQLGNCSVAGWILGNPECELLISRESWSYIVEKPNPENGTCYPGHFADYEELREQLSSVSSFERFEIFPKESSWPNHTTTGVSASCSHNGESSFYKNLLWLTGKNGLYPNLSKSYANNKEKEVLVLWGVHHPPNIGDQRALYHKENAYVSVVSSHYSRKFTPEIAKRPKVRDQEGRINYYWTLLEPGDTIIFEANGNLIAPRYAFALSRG

[6] = target: H7 HA of A/New York/107/2003 (Influenza A virus A/New York/107/2003 …, UniProt B2LVD7, strain); assay: ELISA
[7] = target: HA head domain of H3 A/Hong Kong/1/1968 (Influenza A virus A/Hong Kong/1/1968 …, strain); assay: crystal structure
[8] = target: H7 HA0 trimer of A/Shanghai/02/2013 (uncleaved, baculovirus-expressed ectodomain) (Influenza A virus A/Shanghai/02/2013 …, UniProt R4NN21, strain); assay: BLI
[9] = target: H1 HA0 trimer of A/California/04/2009 (uncleaved, baculovirus-expressed ectodomain) (influenza A virus A/California/04/2009 …); assay: BLI
[10] = target: H5 HA of A/Indonesia/5/2005 (Influenza A virus A/Indonesia/5/2005 …, UniProt A5A5L7, strain); assay: ELISA
H1 HA of A/Texas/36/1991 = H1 HA of A/Texas/36/1991 (Influenza A virus A/Texas/36/1991 (H1N1), UniProt Q6WG02, strain); assay: ELISA

Measured: binding result

B1: FluA-20 IgG (hybridoma-generated) (antibody, V domains shown)
VH: QVQLEESGPGLVKPSETLSLTCSVSGVSVTSDIYYWTWIRQPPGKGLEWIGYIFYNGDTNYNPSLKSRVTMSIDTSKNEFSLRLTSVTAADTAVYFCARGTEDLGYCSSGSCPNHWGQGTLVTVSS
VL: DIVMTQSPSSLSASIGDRVTITCRPSQNIRSFLNWFQHKPGKAPKLLIYAASNLQSGVPSRFSGSGSGTEFTLTIRSLQPEDFATYYCQQSYNTPPTFGQGTKVEIK
binds: [1] | [2] | [3] | [4] | [5] | [6]

B2: rFluA-20 Fab (Fab, V domains shown)
VH: QVQLEESGPGLVKPSETLSLTCSVSGVSVTSDIYYWTWIRQPPGKGLEWIGYIFYNGDTNYNPSLKSRVTMSIDTSKNEFSLRLTSVTAADTAVYFCARGTEDLGYCSSGSCPNHWGQGTLVTVSS
VL: DIVMTQSPSSLSASIGDRVTITCRPSQNIRSFLNWFQHKPGKAPKLLIYAASNLQSGVPSRFSGSGSGTEFTLTIRSLQPEDFATYYCQQSYNTPPTFGQGTKVEIK
binds: [7] | [8] | [9]

B3: rFluA-20 IgG (recombinant FluA-20 IgG) (antibody, V domains shown)
VH: QVQLEESGPGLVKPSETLSLTCSVSGVSVTSDIYYWTWIRQPPGKGLEWIGYIFYNGDTNYNPSLKSRVTMSIDTSKNEFSLRLTSVTAADTAVYFCARGTEDLGYCSSGSCPNHWGQGTLVTVSS
VL: DIVMTQSPSSLSASIGDRVTITCRPSQNIRSFLNWFQHKPGKAPKLLIYAASNLQSGVPSRFSGSGSGTEFTLTIRSLQPEDFATYYCQQSYNTPPTFGQGTKVEIK
binds: [6] | [10] | H1 HA of A/Texas/36/1991
